Drawing on PMC4954055, “A Self‐Assembled Respiratory Chain that Catalyzes NADH Oxidation by Ubiquinone‐10 Cycling between Complex I and the Alternative Oxidase” (Angewandte Chemie (International Ed. in English), 2015), this text covers kcat for 1 protein.

Substrate in the data set: COC1=C(OC)C(=O)C(C/C=C(\C)CC/C=C(\C)CC/C=C(\C)CC/C=C(\C)CC/C=C(\C)CC/C=C(\C)CC/C=C(\C)CC/C=C(\C)CC/C=C(\C)CCC=C(C)C)=C(C)C1=O
The data set is described as follows: NADH:O2 oxidoreduction in Q10 proteoliposomes, Michaelis-Menten fit. In kind it is biochemical, Bos taurus. Particulars: 200 μM NADH, 15 μg/mL alamethicin, 10 mM Tris-SO4 pH 7.5, 50 mM KCl, 32 °C, excess AOX reoxidizes Q10H2, membrane-phase concentration, stated as approximately 3.9 mM Q10 in the membrane phase.

B1: complex I (NADH:ubiquinone oxidoreductase, CI) (Bos taurus) (protein)
chain 1: ARQWQPDVEWAEQYGGAVMYPTKETAHWKPPPWNDVDPPKDTLVSNLTLNFGPQHPAAHGVLRLVMELSGEMVRKCDPHIGLLHRGTEKLIEYKTYLQALPYFDRLDYVSMMCNEQAYSLAVEKLLNIQPPPRAQWIRVLFGEITRLLNHIMAVTTHALDIGAMTPFFWMFEEREKMFEFYERVSGARMHAAYVRPGGVHQDLPLGLMDDIYEFSKNFSLRIDELEEMLTNNRIWRNRTVDIGIVTAEDALNYGFSGVMLRGSGIQWDLRKTQPYDVYDQVEFDVPIGSRGDCYDRYLCRVEEMRQSIRIISQCLNKMPPGEIKVDDAKVSPPKRAEMKTSMESLIHHFKLYTEGYQVPPGATYTAIEAPKGEFGVYLVSDGSSRPYRCKIKAPGFAHLAGLDKMSKGHMLADVVAIIGTQDIVFGEVDR
chain 2: not shown
chain 3: not shown
notes: native complex purified from heart mitochondria, detergent-solubilized, reconstituted into proteoliposomes with Q10 and AOX; with NADH dehydrogenase [ubiquinone] flavoprotein 1, mitochondrial; NADH dehydrogenase [ubiquinone] flavoprotein 2, mitochondrial; NADH-ubiquinone oxidoreductase 75 kDa subunit, mitochondrial; NADH dehydrogenase [ubiquinone] iron-sulfur protein 3, mitochondrial; NADH …
As a reminder, the kcat is the maximal rate divided by the concentration of active sites. On to B1, for which the kcat is 500 s⁻¹.
